Here are results for four molecules from patent publication US20240270846A1 (published 2024).

To fix the notation:
B1: CE115HA000 H35K one-arm antibody (antibody, human IgG1, kappa, L234A L235A, N297A, name in Kabat numbering)
heavy: QVQLVESGGGVVQPGRSLRLSCAASGFTFSNAWMKWVRQAPGKGLEWVAQIKAKSNNYATYYAESVKGRFTISRDDSKNSLYLQMNSLKTEDTAVYYCRYVHYGAYYGVDAWGQGTTVTVSSASTKGPSVFPLAPSSKSTSGGTAALGCLVKDYFPEPVTVSWNSGALTSGVHTFPAVLQSSGLYSLSSVVTVPSSSLGTQTYICNVNHKPSNTKVDKKVEPKSCDKTHTCPPCPAPEAAGGPSVFLFPPKPKDTLMISRTPEVTCVVVDVSHEDPEVKFNWYVDGVEVHNAKTKPREEQYASTYRVVSVLTVLHQDWLNGKEYKCKVSNKALPAPIEKTISKAKGQPREPQVYTLPPSRCELTKNQVSLSCAVKGFYPSDIAVEWESNGQPENNYKTTPPVLDSDGSFFLVSKLTVDKSRWQQGNVFSCSVMHEALHNHYTQKSLSLSPDYKDDDDK
chain: EPKSSDKTHTCPPCPAPELLGGPSVFLFPPKPKDTLMISRTPEVTCVVVDVSHEDPEVKFNWYVDGVEVHNAKTKPREEQYNSTYRVVSVLTVLHQDWLNGKEYKCKVSNKALPAPIEKTISKAKGQPREPQVCTLPPSRDELTKNQVSLWCLVKGFYPSDIAVEWESNGQPENNYKTTPPVLDSDGSFFLYSKLTVDKSRWQQGNVFSCSVMHEALHNRYTQKSLSLSP
light: DIVMTQSPLSLPVTPGEPASISCRSSQSLVHSNRNTYLHWYQQKPGQAPRLLIYKVSNRFSGVPDRFSGSGSGTDFTLKISRVEAEDVGVYYCGQGTQVPYTFGQGTKLEIKRTVAAPSVFIFPPSDEQLKSGTASVVCLLNNFYPREAKVQWKVDNALQSGNSQESVTEQDSKDSTYSLSSTLTLSKADYEKHKVYACEVTHQGLSSPVTKSFNRGEC
notes: one-arm antibody
B2: CE115HA000 H35L one-arm antibody (antibody, human IgG1, kappa, L234A L235A, N297A, name in Kabat numbering)
heavy: QVQLVESGGGVVQPGRSLRLSCAASGFTFSNAWMLWVRQAPGKGLEWVAQIKAKSNNYATYYAESVKGRFTISRDDSKNSLYLQMNSLKTEDTAVYYCRYVHYGAYYGVDAWGQGTTVTVSSASTKGPSVFPLAPSSKSTSGGTAALGCLVKDYFPEPVTVSWNSGALTSGVHTFPAVLQSSGLYSLSSVVTVPSSSLGTQTYICNVNHKPSNTKVDKKVEPKSCDKTHTCPPCPAPEAAGGPSVFLFPPKPKDTLMISRTPEVTCVVVDVSHEDPEVKFNWYVDGVEVHNAKTKPREEQYASTYRVVSVLTVLHQDWLNGKEYKCKVSNKALPAPIEKTISKAKGQPREPQVYTLPPSRCELTKNQVSLSCAVKGFYPSDIAVEWESNGQPENNYKTTPPVLDSDGSFFLVSKLTVDKSRWQQGNVFSCSVMHEALHNHYTQKSLSLSPDYKDDDDK
chain: EPKSSDKTHTCPPCPAPELLGGPSVFLFPPKPKDTLMISRTPEVTCVVVDVSHEDPEVKFNWYVDGVEVHNAKTKPREEQYNSTYRVVSVLTVLHQDWLNGKEYKCKVSNKALPAPIEKTISKAKGQPREPQVCTLPPSRDELTKNQVSLWCLVKGFYPSDIAVEWESNGQPENNYKTTPPVLDSDGSFFLYSKLTVDKSRWQQGNVFSCSVMHEALHNRYTQKSLSLSP
light: DIVMTQSPLSLPVTPGEPASISCRSSQSLVHSNRNTYLHWYQQKPGQAPRLLIYKVSNRFSGVPDRFSGSGSGTDFTLKISRVEAEDVGVYYCGQGTQVPYTFGQGTKLEIKRTVAAPSVFIFPPSDEQLKSGTASVVCLLNNFYPREAKVQWKVDNALQSGNSQESVTEQDSKDSTYSLSSTLTLSKADYEKHKVYACEVTHQGLSSPVTKSFNRGEC
notes: one-arm antibody
B3: CE115HA000 H35N one-arm antibody (antibody, human IgG1, kappa, L234A L235A, N297A, name in Kabat numbering)
heavy: QVQLVESGGGVVQPGRSLRLSCAASGFTFSNAWMNWVRQAPGKGLEWVAQIKAKSNNYATYYAESVKGRFTISRDDSKNSLYLQMNSLKTEDTAVYYCRYVHYGAYYGVDAWGQGTTVTVSSASTKGPSVFPLAPSSKSTSGGTAALGCLVKDYFPEPVTVSWNSGALTSGVHTFPAVLQSSGLYSLSSVVTVPSSSLGTQTYICNVNHKPSNTKVDKKVEPKSCDKTHTCPPCPAPEAAGGPSVFLFPPKPKDTLMISRTPEVTCVVVDVSHEDPEVKFNWYVDGVEVHNAKTKPREEQYASTYRVVSVLTVLHQDWLNGKEYKCKVSNKALPAPIEKTISKAKGQPREPQVYTLPPSRCELTKNQVSLSCAVKGFYPSDIAVEWESNGQPENNYKTTPPVLDSDGSFFLVSKLTVDKSRWQQGNVFSCSVMHEALHNHYTQKSLSLSPDYKDDDDK
chain: EPKSSDKTHTCPPCPAPELLGGPSVFLFPPKPKDTLMISRTPEVTCVVVDVSHEDPEVKFNWYVDGVEVHNAKTKPREEQYNSTYRVVSVLTVLHQDWLNGKEYKCKVSNKALPAPIEKTISKAKGQPREPQVCTLPPSRDELTKNQVSLWCLVKGFYPSDIAVEWESNGQPENNYKTTPPVLDSDGSFFLYSKLTVDKSRWQQGNVFSCSVMHEALHNRYTQKSLSLSP
light: DIVMTQSPLSLPVTPGEPASISCRSSQSLVHSNRNTYLHWYQQKPGQAPRLLIYKVSNRFSGVPDRFSGSGSGTDFTLKISRVEAEDVGVYYCGQGTQVPYTFGQGTKLEIKRTVAAPSVFIFPPSDEQLKSGTASVVCLLNNFYPREAKVQWKVDNALQSGNSQESVTEQDSKDSTYSLSSTLTLSKADYEKHKVYACEVTHQGLSSPVTKSFNRGEC
notes: one-arm antibody
B4: CE115HA000 H35M one-arm antibody (antibody, human IgG1, kappa, L234A L235A, N297A, name in Kabat numbering)
heavy: QVQLVESGGGVVQPGRSLRLSCAASGFTFSNAWMMWVRQAPGKGLEWVAQIKAKSNNYATYYAESVKGRFTISRDDSKNSLYLQMNSLKTEDTAVYYCRYVHYGAYYGVDAWGQGTTVTVSSASTKGPSVFPLAPSSKSTSGGTAALGCLVKDYFPEPVTVSWNSGALTSGVHTFPAVLQSSGLYSLSSVVTVPSSSLGTQTYICNVNHKPSNTKVDKKVEPKSCDKTHTCPPCPAPEAAGGPSVFLFPPKPKDTLMISRTPEVTCVVVDVSHEDPEVKFNWYVDGVEVHNAKTKPREEQYASTYRVVSVLTVLHQDWLNGKEYKCKVSNKALPAPIEKTISKAKGQPREPQVYTLPPSRCELTKNQVSLSCAVKGFYPSDIAVEWESNGQPENNYKTTPPVLDSDGSFFLVSKLTVDKSRWQQGNVFSCSVMHEALHNHYTQKSLSLSPDYKDDDDK
chain: EPKSSDKTHTCPPCPAPELLGGPSVFLFPPKPKDTLMISRTPEVTCVVVDVSHEDPEVKFNWYVDGVEVHNAKTKPREEQYNSTYRVVSVLTVLHQDWLNGKEYKCKVSNKALPAPIEKTISKAKGQPREPQVCTLPPSRDELTKNQVSLWCLVKGFYPSDIAVEWESNGQPENNYKTTPPVLDSDGSFFLYSKLTVDKSRWQQGNVFSCSVMHEALHNRYTQKSLSLSP
light: DIVMTQSPLSLPVTPGEPASISCRSSQSLVHSNRNTYLHWYQQKPGQAPRLLIYKVSNRFSGVPDRFSGSGSGTDFTLKISRVEAEDVGVYYCGQGTQVPYTFGQGTKLEIKRTVAAPSVFIFPPSDEQLKSGTASVVCLLNNFYPREAKVQWKVDNALQSGNSQESVTEQDSKDSTYSLSSTLTLSKADYEKHKVYACEVTHQGLSSPVTKSFNRGEC
notes: one-arm antibody

T1 sequence (P07766 23-126): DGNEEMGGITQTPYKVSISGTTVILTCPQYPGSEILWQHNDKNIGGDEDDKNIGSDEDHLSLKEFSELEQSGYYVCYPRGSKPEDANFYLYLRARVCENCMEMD

The test has as its target T1, CD3 epsilon homodimer protein (UniProt P07766 23-126).
T1 construct: also called CD3 (CD3 epsilon)
Description: SPR Biacore T200, antibody over immobilised CD3e homodimer.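 Also: CD3 epsilon homodimer amine-coupled on a CM4 chip, run at 25 °C in HBS-EP+, Z = bound amount of each single-residue H chain variant over that of the parent antibody.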
Regarding B1, the “ratio of amounts bound (Z=Y/X vs CE115HA000)” value (“ratio of amounts bound” below) worked out at 0.15. Then B2, with 0.11. B3: the “ratio of amounts bound” value stood at 0.35. As for B4, the “ratio of amounts bound” value amounted to 0.29.
